± gives the uncertainty stated by the source.
B1: Histidine--tRNA ligase, cytoplasmic, residues 8 to 45; numbered along this chain, P12081 (parent)
chain: EELVKLQGERVRGLKQQKASAELIEEEVAKLLKLKAQL

Variants of: B1
Test: abundance fitness (aPCA) (normalised: wild type 0, dead -1); higher = more abundant; growth selection in yeast, the domain comes from the species named
Details: Homo sapiens

Variant	abundance fitness
R10Q	-0.097 ± 0.095
R10G	-0.229 ± 0.081
R10E	-0.044 ± 0.093
R10C	-0.379 ± 0.087
R10T	0.013 ± 0.081
R10F	-0.288 ± 0.1
R10H	-0.131 ± 0.12
R10I	-0.035 ± 0.13
R10N	-0.198 ± 0.08
R10P	0.053 ± 0.081
R10W	-0.887 ± 0.12
R10S	-0.213 ± 0.074
R10M	-0.06 ± 0.098
R10D	-0.084 ± 0.14
R10L	-0.026 ± 0.073
R10V	0.039 ± 0.084
R10Y	-0.125 ± 0.12
R10K	0.245 ± 0.12
Q17H	-0.446 ± 0.19
Q17S	0.055 ± 0.084
Q17I	-0.388 ± 0.091
Q17F	-0.396 ± 0.085
Q17V	-0.258 ± 0.094
Q17R	-0.196 ± 0.073

Variant	abundance fitness
Q17G	-0.071 ± 0.08
Q17D	-0.11 ± 0.12
Q17W	-0.5 ± 0.18
Q17L	-0.232 ± 0.073
Q17P	-0.369 ± 0.13
Q17M	0.052 ± 0.11
G13V	0.198 ± 0.08
G13R	0.005 ± 0.072
G13T	0.218 ± 0.083
G13Q	0.253 ± 0.1
G13Y	-0.136 ± 0.15
G13S	0.154 ± 0.082
G13M	0.324 ± 0.099
G13K	0.168 ± 0.094
G13L	0.197 ± 0.079
G13C	0.271 ± 0.085
G13H	0.079 ± 0.094
G13P	-0.237 ± 0.083
G13W	0.055 ± 0.082
G13N	0.307 ± 0.19
G13D	0.079 ± 0.11
G13A	0.23 ± 0.083
G13I	0.188 ± 0.11
G13F	0.079 ± 0.11

Variant	abundance fitness
G8I	0.086 ± 0.12
G8V	0.085 ± 0.098
G8K	0.377 ± 0.27
G8H	-0.409 ± 0.1
G8C	-1.04 ± 0.1
G8N	-0.075 ± 0.09
G8P	-0.25 ± 0.094
G8S	0.074 ± 0.068
G8M	0.106 ± 0.15
G8R	-0.04 ± 0.082
G8D	0.054 ± 0.097
G8Y	-0.285 ± 0.094
G8L	-0.002 ± 0.075
G8Q	0.194 ± 0.11
G8A	0.101 ± 0.09
G8W	-0.452 ± 0.27
G8F	-0.287 ± 0.12
G8E	0.44 ± 0.11
G8T	0.217 ± 0.1
L23K	0.045 ± 0.091
L23S	-0.266 ± 0.085
L23Y	-0.358 ± 0.091
L23P	-0.004 ± 0.086
L23V	0.2 ± 0.082

Variant	abundance fitness
L23M	0.243 ± 0.13
L23I	0.188 ± 0.12
L23Q	0.262 ± 0.1
L23A	-0.037 ± 0.073
L23N	-0.04 ± 0.11
L23H	-0.075 ± 0.11
L23T	0.071 ± 0.082
L23D	-0.072 ± 0.12
L23R	-0.001 ± 0.073
L23G	-0.143 ± 0.083
K5I	-0.436 ± 0.099
K5L	-0.394 ± 0.071
K5S	-0.531 ± 0.072
K5F	-0.443 ± 0.084
K5E	-0.026 ± 0.1
K5C	-0.531 ± 0.13
K5Y	-0.27 ± 0.079
K5A	-0.234 ± 0.085
K5V	-0.611 ± 0.084
K5Q	-0.019 ± 0.099
K5G	-0.407 ± 0.07
K5H	-0.223 ± 0.078
K5P	-0.54 ± 0.078
K5R	-0.269 ± 0.088

Variant	abundance fitness
K5W	-0.383 ± 0.13
K5M	-0.143 ± 0.11
Q7K	-0.693 ± 0.18
Q7W	-1.15 ± 0.12
Q7D	-0.492 ± 0.09
Q7E	-1.63 ± 0.36
Q7N	-0.485 ± 0.12
Q7R	-0.649 ± 0.081
Q7G	-0.619 ± 0.09
Q7A	-0.348 ± 0.082
Q7I	-0.526 ± 0.083
Q7F	-0.73 ± 0.11
Q7C	-0.616 ± 0.096
Q7H	-0.507 ± 0.086
Q7V	-0.379 ± 0.091
Q7Y	-0.706 ± 0.091
Q7L	-0.515 ± 0.074
Q7T	-0.357 ± 0.073
Q7P	-0.595 ± 0.078
Q7M	-0.452 ± 0.092
Q7S	-0.433 ± 0.068
A21M	0.116 ± 0.12
A21L	-0.058 ± 0.096
A21D	0.13 ± 0.097

Variant	abundance fitness
A21W	-0.49 ± 0.12
A21Q	0.039 ± 0.13
A21T	-0.006 ± 0.11
A21E	0.085 ± 0.2
A21S	0.072 ± 0.096
A21F	-0.075 ± 0.11
A21V	-0.161 ± 0.082
A21Y	-0.208 ± 0.11
A21H	-0.004 ± 0.086
A21R	-0.086 ± 0.071
A21N	0.119 ± 0.13
A21K	0.055 ± 0.21
A21P	0.184 ± 0.072
A21G	-0.151 ± 0.078
A21C	-0.202 ± 0.17
A21I	-0.101 ± 0.12
K15C	-0.27 ± 0.093
K15D	-0.271 ± 0.14
K15E	0.187 ± 0.11
K15T	0.001 ± 0.081
K15N	-0.135 ± 0.093
K15R	-0.1 ± 0.073
K15M	0.149 ± 0.12
K15Y	-0.41 ± 0.11

Variant	abundance fitness
K15L	-0.13 ± 0.075
K15V	-0.103 ± 0.087
K15A	-0.107 ± 0.069
K15F	-0.164 ± 0.088
K15H	-0.127 ± 0.087
K15Q	0.061 ± 0.093
K15G	-0.274 ± 0.07
K15W	-0.412 ± 0.094
K15I	0.017 ± 0.095
K15S	-0.184 ± 0.082
Q16W	-0.483 ± 0.12
Q16R	-0.11 ± 0.082
Q16F	-0.397 ± 0.08
Q16G	-0.242 ± 0.079
Q16C	-0.288 ± 0.096
Q16P	-0.223 ± 0.089
Q16N	0.076 ± 0.1
Q16M	0.028 ± 0.078
Q16H	-0.134 ± 0.095
Q16D	0.083 ± 0.12
Q16Y	-0.427 ± 0.11
Q16K	-0.004 ± 0.085
Q16T	-0.08 ± 0.095
